{"source": "patent US7744887B2", "about": "“Human antibodies interacting with HIV gp41” (priority 2004, dated 2010)", "key": {"[1]": {"test_system": "HIV-1 (envelope from strain HXB2)", "test": "HIV Reporter Particle (HIVRP) assay", "type": "cell-based", "settings": "envelope from strain HXB2, purified scFvs"}, "[2]": {"test_system": "CXCR4-tropic HIV-1 strain HXB2", "type": "cell-based", "settings": "for effect on HIV-HXB2 replication: single cycle infectivity assay, FIG. 9"}, "CCR5-tropic strain BaL": {"test_system": "CCR5-tropic strain BaL", "type": "cell-based, HIV-1"}, "[3]": {"test_system": "HIV particles pseudotyped with the surface protein of the Vesicular Stomatitis Virus (VSV-G)", "type": "cell-based"}, "[4]": {"test_system": "dual tropic strain (CCR5 and CXCR4) HIV 89.6", "type": "cell-based, HIV-1"}, "IQN17": {"test_system": "IQN17", "test": "ALPHASCREEN D5 IgG/IQN17 binding assay", "set-up": "species or system HIV-1"}, "5-Helix [5]": {"molecular_target": "T1, 5-Helix (Human immunodeficiency virus type 1 group M subtype B, UniProt P04578, C598G/DEL583-596/DEL601-623/N624G)", "settings": "Biacore, peptide 5-Helix", "description": "(§1) Affinity of D5 IgG for the hydrophobic pocket of HR1—The affinity of D5 IgG for various peptides was next determined by surface plasmon resonance (Biacore)."}, "IZN17": {"molecular_target": "IZN17", "test": "Surface plasmon resonance (Biacore), IZN17", "type": "binding, HIV-1", "settings": "peptide IZN17", "description": "as §1"}, "IZN17-G572D": {"molecular_target": "IZN17-G572D", "test": "Surface plasmon resonance (Biacore), IZN17-G572D", "type": "binding, HIV-1", "settings": "peptide IZN17-G572D", "description": "as §1"}, "IZN17-L565M": {"molecular_target": "IZN17-L565M", "test": "Surface plasmon resonance (Biacore), IZN17-L565M", "type": "binding, HIV-1", "settings": "peptide IZN17-L565M", "description": "as §1"}, "IZN17-Q567R": {"molecular_target": "IZN17-Q567R", "test": "Surface plasmon resonance (Biacore), IZN17-Q567R", "type": "binding, HIV-1", "settings": "peptide IZN17-Q567R", "description": "as §1"}, "IQN17-2Pro": {"molecular_target": "IQN17-2Pro", "test": "Surface plasmon resonance (Biacore), IQN17-2Pro", "type": "binding, HIV-1", "settings": "peptide IQN17-2Pro", "description": "as §1"}, "5-Helix [6]": {"molecular_target": "T1, 5-Helix", "settings": "ALPHASCREEN, FIG. 10"}, "IZN36": {"molecular_target": "IZN36 (Human immunodeficiency virus type 1 group M subtype B, UniProt P04578)", "settings": "ALPHASCREEN, FIG. 10"}, "[7]": {"molecular_target": "interaction of biotinylated IZN36 with C34-HA (Human immunodeficiency virus type 1 group M subtype B, UniProt P04578)", "settings": "ALPHASCREEN, FIG. 15"}, "HIV strain MN-1": {"test_system": "HIV strain MN-1", "type": "cell-based, HIV-1", "settings": "MN-1, single cycle infectivity assay"}}}
{"molecule": "D5 scFv: human scFv from phage display, SEQ ID NO:2, VH and VL joined by (G4S)3 linker; binds gp41 HR1 hydrophobic pocket (protein, Homo sapien) scFv: QVQLVQSGAEVRKPGASVKVSCKASGDTFSSYAISWVRQAPGQGLEWMGGIIPIFGTANYAQKFQGRVTITADESTSTAYMELSSLRSEDTAIYYCARDNPTLLGSDYWGKGTLVTVSSGGGGSGGGGSGGGGSDIQMTQSPSTLSASIGDRVTITCRASEGIYHWLAWYQQKPGKAPKLLIYKASSLASGAPSRFSGSGSGTDFTLTISSLQPDDFATYYCQQYSNYPLTFGGGTKLEIK", "values": [{"measurement": "ability to prevent HIV-1 entry", "setting": "[1]", "result": "capable of inhibiting HIV-1 entry"}, {"measurement": "effect on HIV-HXB2 replication", "setting": "[2]", "result": "inhibited HIV—HXB2 replication"}, {"measurement": "effect on HIV-BaL replication", "setting": "CCR5-tropic strain BaL; single cycle infectivity assay", "result": "inhibited replication of HIV-BaL"}, {"measurement": "prevention of infection by VSV-G pseudotyped particles", "setting": "[3]", "result": "Neither D5 nor X5 scFvs prevented infection"}]}
{"molecule": "D5 IgG: full length human IgG4/kappa carrying D5 VH (SEQ ID NO:4) and VL (SEQ ID NO:6) (antibody, V domains shown, human IgG4/kappa constant regions; Homo sapien) VH: QVQLVQSGAEVRKPGASVKVSCKASGDTFSSYAISWVRQAPGQGLEWMGGIIPIFGTANYAQKFQGRVTITADESTSTAYMELSSLRSEDTAIYYCARDNPTLLGSDYWGKGTLVTVSS VL: DIQMTQSPSTLSASIGDRVTITCRASEGIYHWLAWYQQKPGKAPKLLIYKASSLASGAPSRFSGSGSGTDFTLTISSLQPDDFATYYCQQYSNYPLTFGGGTKLEIK", "values": [{"measurement": "fold more sensitive than HXB2", "setting": "CCR5-tropic strain BaL; BaL versus HXB2", "result": "approximately 3 fold"}, {"measurement": "fold less susceptible to neutralization than HXB2", "setting": "[4]; 89.6 versus HXB2", "result": "approximately 6 fold"}, {"measurement": "IC50", "setting": "[3]", "result": "Not active"}, {"measurement": "interaction with biotinylated IQN17", "setting": "IQN17", "result": "evident interaction"}, {"measurement": "Off", "setting": "5-Helix [5]", "result": "1.0e−4 1/S"}, {"measurement": "On", "setting": "5-Helix [5]", "result": 390000, "unit": "M⁻¹ s⁻¹"}, {"measurement": "Kd", "setting": "IZN17", "result": 0.1, "unit": "nM"}, {"measurement": "Off", "setting": "IZN17", "result": "5.9e−4 1/S"}, {"measurement": "On", "setting": "IZN17", "result": "6.1e+06", "unit": "M⁻¹ s⁻¹"}, {"measurement": "Kd", "setting": "IZN17-G572D", "result": 550, "unit": "nM"}, {"measurement": "Off", "setting": "IZN17-G572D", "result": "3.0e−3 1/S"}, {"measurement": "On", "setting": "IZN17-G572D", "result": 5500, "unit": "M⁻¹ s⁻¹"}, {"measurement": "Kd", "setting": "IZN17-L565M", "result": 0.3, "unit": "nM"}, {"measurement": "Off", "setting": "IZN17-L565M", "result": "8.9e−4 1/S"}, {"measurement": "On", "setting": "IZN17-L565M", "result": "3e+06", "unit": "M⁻¹ s⁻¹"}, {"measurement": "Kd", "setting": "IZN17-Q567R", "result": 1.5, "unit": "nM"}, {"measurement": "Off", "setting": "IZN17-Q567R", "result": "1.2e−3 1/S"}, {"measurement": "On", "setting": "IZN17-Q567R", "result": 800000, "unit": "M⁻¹ s⁻¹"}, {"measurement": "Kd", "setting": "IQN17-2Pro", "result": 240, "unit": "nM"}, {"measurement": "Off", "setting": "IQN17-2Pro", "result": "2.2e−3 1/S"}, {"measurement": "On", "setting": "IQN17-2Pro", "result": 9000, "unit": "M⁻¹ s⁻¹"}, {"measurement": "interaction with biotinylated 5-Helix", "setting": "5-Helix [6]", "result": "clear interaction"}, {"measurement": "interaction with biotinylated IZN36", "setting": "IZN36", "result": "clear interaction"}, {"measurement": "effect on the interaction of C34-HA with IZN36", "setting": "[7]", "result": "prevented the interaction of C34-HA with IZN36"}]}
{"molecule": "B11 IgG: full length human IgG1/kappa carrying B11 VH (SEQ ID NO:10) and VL (SEQ ID NO:12) (antibody, V domains shown, human IgG1/kappa constant regions; Homo sapien) VH: QVQLVQSGAEVKKPGSSVKVSCKASGGTFSSYAISWVRQAPGQGLEWMGGIIPLFDTSNYAQNFQGRITITADKSTSTAYMELSSLRFEDTAIYYCARDNPLLLAMDVWGKGTTVTVSS VL: DIQMTQSPSTLSASIGDRVTITCRASEGIYHWLAWYQQKPGKAPKLLIYKASSLASGAPSRFSGSGSGTDFTLTISSLQPDDFATYYCQQYSNYPLTFGGGTKLEIK", "values": [{"measurement": "IC50", "setting": "[2]; HIV-HXB2, single cycle infectivity assay", "result": 290, "unit": "nM"}, {"measurement": "IC50", "setting": "CCR5-tropic strain BaL; HIV-BaL, single cycle infectivity assay", "result": 73, "unit": "nM"}, {"measurement": "IC50", "setting": "[4]; HIV 89.6, single cycle infectivity assay", "result": 943, "unit": "nM"}, {"measurement": "IC50", "setting": "HIV strain MN-1", "result": 244, "unit": "nM"}]}
{"molecule": "B11 scFv: human scFv from phage display, SEQ ID NO:8, VH and VL joined by (G4S)3 linker; binds gp41 HR1 (protein, Homo sapien) scFv: QVQLVQSGAEVKKPGSSVKVSCKASGGTFSSYAISWVRQAPGQGLEWMGGIIPLFDTSNYAQNFQGRITITADKSTSTAYMELSSLRFEDTAIYYCARDNPLLLAMDVWGKGTTVTVSSGGGGSGGGGSGGGGSDIQMTQSPSTLSASIGDRVTITCRASEGIYHWLAWYQQKPGKAPKLLIYKASSLASGAPSRFSGSGSGTDFTLTISSLQPDDFATYYCQQYSNYPLTFGGGTKLEIK", "values": [{"measurement": "ability to prevent HIV-1 entry", "setting": "[1]", "result": "capable of inhibiting HIV-1 entry"}, {"measurement": "effect on HIV-HXB2 replication", "setting": "[2]", "result": "displayed anti-viral properties against the HIV—HXB2 strain"}]}
